Measurements as given in patent US10369187B2, “Peptide regulators of JNK family kinases” (Vanderbilt University, priority 2017, dated 2019).
“Also recorded” adds a separate entry of the source.

Target: T1, MKK4 (Homo sapiens, UniProt P45985)
T1 sequence (P45985 1-399): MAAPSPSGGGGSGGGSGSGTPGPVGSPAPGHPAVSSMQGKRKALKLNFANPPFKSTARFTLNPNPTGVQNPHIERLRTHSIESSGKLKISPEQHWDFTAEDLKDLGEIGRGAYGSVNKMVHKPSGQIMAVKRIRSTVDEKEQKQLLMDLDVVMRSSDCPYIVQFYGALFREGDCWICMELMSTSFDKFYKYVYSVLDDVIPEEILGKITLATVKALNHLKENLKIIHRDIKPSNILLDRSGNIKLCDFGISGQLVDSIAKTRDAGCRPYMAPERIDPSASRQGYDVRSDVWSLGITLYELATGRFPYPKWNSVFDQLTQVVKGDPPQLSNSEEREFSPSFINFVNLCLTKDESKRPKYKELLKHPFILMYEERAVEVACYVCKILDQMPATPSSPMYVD
Assay: MBP pull-down of purified MKK4
Format: binding
Settings: for binding of MKK4 in MBP pull-down: purified GST-MKK4, peptide as MBP-fusion immobilized on amylose
Method: T1A was expressed in E. coli as an MBP-fusion and purified it on an amylose column^23. The ability of purified GST-MKK4 or GST-MKK7 (FIG. 1A) to bind MBP-T1A immobilized on an amylose column was tested in an in vitro pull-down assay, where MBP and MBP-arrestin-3 served as negative and positive controls, respectively (FIG. 1B). MBP-T1A, but not control MBP, effectively retained both kinases (FIG. 1B). […] Next, it was tested whether T1A binds the uppermost kinase in the cascade, ASK1. Because ASK1 is not available in purified form, HA-tagged ASK1 and YFP-tagged T1A (using YFP as a control) were co-expressed in COS7 cells, lysed the cells, and immunoprecipitated YFP constructs with anti-GFP antibody (FIG. 1C).
To make MBP-fusions containing arrestin-2/3 elements, the cDNAs encoding arrestin fragments were subcloned into pMal-p2T (generous gift from Dr. Keiji Tanaka, Tokyo Institute of Medical Science) between Eco RI and Xho I sites in frame with MBP, as described^23. MBP-Arr3 (full-length arrestin-3) was created by subcloning the corresponding cDNA into pMal-p2T between Eco RI and Not I sites^23. All MBP-arrestin-3 fusion proteins contained the same […] (SEQ ID NO:29) linker between MBP and arrestin-3 or its fragments. The MBP protein used as negative control was purified using empty pMal-p2T vector containing the same linker with 10 additional residues: […] (SEQ ID NO:30). MBP fusions were purified, as described^23. MBP pull-down was performed, as described^23. Briefly, Indicated MBP fusions (10-30 μg in 50 μL 20 mM Tris/150 mM NaCl) were immobilized on amylose resin (25 μL, 50% slurry, New England Biolabs) for 1 h at 4° C. with slight rotation. Purified, as described^40, MKK4/7 (10 μg in 50 μL 20 mM Tris/150 mM NaCl) were added to the immobilized MBP fusions and rotated gently for 2 h at 4° C. Samples were transferred to centrifuge filters (Durapore®-PVDF-0.65 μm), washed three times with 50 mM HEPES-Na, pH 7.3, 150 mM NaCl. The proteins were eluted by 100 μl of elution buffer (wash buffer containing 50 mM maltose) by gentle rotation for 5 min at 4° C. Eluates were analyzed by SDS-PAGE and Western blotting.

| Substance | binding of MKK4 in MBP pull-down | interaction with MKK4 compared with MKK7 (MBP pull-down, purified proteins) |
| --- | --- | --- |
| MGDK-GTRVFKKASPNGKLTVYLGK (MGDKGTRVFKKASPNGKLTVYLGK; N-terminal MGDK; bovine) [B1A, homologous N-terminal peptide from arrestin-2, negative control] | comparably bind MKK4 |  |
| MGEKPGTRVFKKSSPNCKLTVYLGK (bovine) [T1A, first 25 residues of arrestin-3] | binds both MKKs; also recorded: comparably bind MKK4 | stronger interaction with MKK4 than with MKK7 |
